{"source": "patent US11702469B2", "about": "“Recombinant EGFL7, EGFL7 antibodies, and uses thereof” (Ohio State Innovation Foundation, priority 2017, dated 2023)", "molecules": {"B1": {"name": "Parsatuzumab: Anti-human EGFL7 therapeutic antibody (Parsatuzumab) obtained from Creative Biolabs; blocking monoclonal antibody (antibody, chains of the INN, looked up, V domains shown)", "VH": "EVQLVESGGGLVQPGGSLRLSCAASGYTFIDYYMNWVRQAPGKGLEWVGDINLDNSGTHYNQKFKGRFTISRDKSKNTAYLQMNSLRAEDTAVYYCAREGVYHDYDDYAMDYWGQGTLVTVSS", "VL": "DIQMTQSPSSLSASVGDRVTITCRTSQSLVHINAITYLHWYQQKPGKAPKLLIYRVSNRFSGVPSRFSGSGSGTDFTLTISSLQPEDFATYYCGQSTHVPLTFGQGTKVEIK"}}, "key": {"NICD": {"system": "NICD", "experiment": "NICD immunoblot in primary AML blasts", "type": "cell-based, human", "conditions": "100 μg/ml, 2 hrs, n=3, vs IgG", "procedure": "FIG. 23A-23E. EGFL7 suppresses NOTCH signaling in human AML patient blasts. (FIG. 23A) Primary blasts from AML patients (n=3) were cultured in SFEM medium with 2% BSA in the presence or absence (Unstim) of 0.25 μM rEGFL7 for 4 h. Total proteins were extracted for immunoblotting of NICD (cleaved NOTCH1) with GAPDH as loading control. (FIG. 23B) Total RNA was extracted for quantitative real time (qRT-PCR) analysis of HES1 mRNA with β-ACTIN as internal control. *p<0.05 vs un-stimulated control (Unstim). (FIG. 23C) qRT-PCR for NOTCH2 mRNA at 4 h and 24 h after stimulation of primary AML blasts with 0.25 uM rEGFL7 or unstim controls. (FIG. 23D) Primary blasts from AML patients (n=3) were cultured in SFEM medium in the absence or presence of 100 μg/ml of normal IgG or anti-human EGFL7 antibody for 2 h. Total protein was extracted for immunoblotting of NICD with GAPDH as loading control. […] Total RNA was extracted for quantitative real time RT-PCR analysis of HES1 mRNA with β-ACTIN as internal control. *p<0.05, ***p<0.001 vs IgG.\nCells were lysed in 100 μl of Pierce RIPA buffer (Cat. #8990, Thermo Scientific) supplemented with protease and phosphatase inhibitors (Roche) on ice for 20 min. […] Immunoreactive bands were detected using ECL Select Western Blotting Detection Reagent (GE Healthcare). […]"}, "human AML blasts": {"system": "human AML blasts", "experiment": "CFU assay, blasts of AML patients", "type": "cell-based", "procedure": "FIG. 4A-4E. EGFL7 stimulates the proliferation of human and mouse acute myeloid leukemia (AML cells). Bone marrow cells from wild-type (WT) mice (FIG. 4A), and Mll^PTD/WTFlt3^ITD/WT mice (FIG. 4B), were treated without (Unstim) or with 0.1, 0.25, or 0.5 μM recombinant mouse Egfl7 (rEgfl7) in IMDM medium+2% bovine serum albumin (BSA) for 24, 48, 72 and 96 hours. At the indicated time points, the number of viable cells was determined by trypan blue dye exclusion assay. Each condition was repeated in triplicate. NS indicates not significant, * indicates P<0.05, ** indicates P<0.01. (FIG. 4C). […] The colonies with more than 50 cells were enumerated using a light microscope. Each condition for each patient (n=4) was plated in triplicate, ** indicates P<0.01, *** indicates P<0.001. (FIG. 4D) Blasts from AML patients (n=4) were cultured in SFEM+2% BSA in the absence or presence of 0.25 μM rEGFL7 for 20 min. Total proteins were extracted for immunoblotting of phosphorylated AKT-S473 (pAKT-S473), total AKT and GAPDH. (FIG. 4E) AML blasts from Mll^PTD/WTFlt3^ITD/WT mice (n=3) were cultured in IMDM medium+2% BSA in the absence or presence of […] recombinant rEgfl7 for 20 min. […]\nFIG. 5. […] The number of colonies with more than 50 cells was counted under a light microscope. […]\nColonies with more than 50 cells were counted using a light microscope. […]"}, "[1]": {"system": "non-small cell lung cancer", "conditions": "mouse, in vivo; cited from earlier work"}}}
{"molecule": "B1", "values": [{"measurement": "NICD levels", "setting": "NICD", "result": "significant increases in NICD levels"}, {"measurement": "cell growth (numbers of formed colonies in CFU assays)", "setting": "human AML blasts; 2, 10, 50, or 250 μg/ml for 2 h, then 10 days, vs normal IgG", "result": "significant decreases in cell growth"}, {"measurement": "blast growth (number of CFUs)", "setting": "human AML blasts; increasing concentrations for 4 hours, then 10 days in methylcellulose, n=4, vs IGg1 control", "result": "dose dependent decrease in blast growth"}, {"measurement": "overall survival", "setting": "[1]", "result": "increased overall survival"}, {"measurement": "tumor size", "setting": "[1]", "result": "decreased tumor size"}]}
